Common to all, as to assay: SPR, antibody captured, C2 as analyte;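 further: biacore SPR at 37 °C, anti-C2 mAbs captured via goat anti-human IgG on CM5 chips, double-referenced sensorgrams fit to a 1:1 kinetic or steady-state model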
In general terms: In SPR one partner is held on a chip, and binding of the other changes the refractive index at the surface.

One experiment addresses T1, human C2 P704A (human, UniProt P06681 21-752).
T1 sequence: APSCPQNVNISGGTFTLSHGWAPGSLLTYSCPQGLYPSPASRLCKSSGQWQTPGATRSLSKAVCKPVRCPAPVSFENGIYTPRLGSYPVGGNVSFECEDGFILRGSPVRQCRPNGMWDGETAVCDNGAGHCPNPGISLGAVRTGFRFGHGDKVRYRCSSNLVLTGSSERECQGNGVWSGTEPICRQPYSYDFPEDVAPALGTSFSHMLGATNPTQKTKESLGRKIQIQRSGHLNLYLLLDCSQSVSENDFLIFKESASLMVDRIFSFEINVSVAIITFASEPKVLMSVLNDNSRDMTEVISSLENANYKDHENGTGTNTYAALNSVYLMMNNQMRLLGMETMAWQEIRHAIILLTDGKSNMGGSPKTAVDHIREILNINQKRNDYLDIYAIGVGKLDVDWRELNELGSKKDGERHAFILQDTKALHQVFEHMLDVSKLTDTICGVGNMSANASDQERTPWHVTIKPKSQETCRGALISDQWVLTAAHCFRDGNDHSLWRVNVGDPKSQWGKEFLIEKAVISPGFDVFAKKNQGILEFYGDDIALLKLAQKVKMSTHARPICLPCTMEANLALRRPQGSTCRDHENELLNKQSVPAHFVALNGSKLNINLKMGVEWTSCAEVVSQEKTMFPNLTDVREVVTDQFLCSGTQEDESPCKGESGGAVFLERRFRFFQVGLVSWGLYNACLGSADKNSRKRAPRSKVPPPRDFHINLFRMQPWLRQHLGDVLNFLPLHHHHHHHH

A further experiment has as its target T2, human C2 R688A (human, UniProt P06681 21-752).
T2 sequence: T1 sequence with R668A, A684P

Another experiment deals with T3, human C2 V448A (human, UniProt P06681 21-752).
T3 sequence: T1 sequence with V428A, A684P

For the next experiment, the target named is T4, human C2 L271A (human, UniProt P06681 21-752).
T4 sequence: T1 sequence with L251A, A684P

Residue numbers refer to the chain shown, from its start.

B1: RF16-226 (antibody, human IgG4 S228P, lambda)
heavy: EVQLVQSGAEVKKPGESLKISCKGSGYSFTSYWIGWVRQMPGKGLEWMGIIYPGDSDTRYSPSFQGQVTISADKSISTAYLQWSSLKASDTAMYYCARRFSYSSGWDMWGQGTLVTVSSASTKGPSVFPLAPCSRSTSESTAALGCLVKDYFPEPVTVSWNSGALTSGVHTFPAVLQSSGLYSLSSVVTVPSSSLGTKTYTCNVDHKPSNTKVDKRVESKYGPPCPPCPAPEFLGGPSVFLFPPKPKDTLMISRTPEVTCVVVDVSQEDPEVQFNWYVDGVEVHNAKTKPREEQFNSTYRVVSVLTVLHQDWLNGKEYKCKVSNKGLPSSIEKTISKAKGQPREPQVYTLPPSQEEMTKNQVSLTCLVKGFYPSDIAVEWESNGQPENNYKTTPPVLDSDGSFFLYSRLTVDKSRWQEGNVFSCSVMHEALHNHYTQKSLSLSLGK
light: SYELTQPPSVSVSPGQTARITCSGDALTSKYVAWYQQKSGLAPLLVIYEDTRRPSGIPAKFSGSSSGSVATLTISGAHGDDEADYYCYSTDASGHQRVFGGGTKLTVLSQPKAAPSVTLFPPSSEELQANKATLVCLISDFYPGAVTVAWKADGSPVKAGVETTKPSKQSNNKYAASSYLSLTPEQWKSHRSYSCQVTHEGSTVEKTVAPTECS
notes: pH-dependent anti-C2 antibody from a phage display library; also called WT
For B1, the Kd (in general, a measure of binding affinity in units of concentration) with human C2 P704A is 120 nM; in the experiment with human C2 R688A, 25.3 nM; in the experiment with human C2 V448A it was 4.4 nM; with human C2 L271A, 10.8 nM.

For the origin of these results see patent US20220332804A1 (CSL INNOVATION, published 2022).
